Assay results taken from US20230002503A1 (BIOTHEUS, published 2023).

Legend:
[1] = molecular target: T1, human CAIX on CHO cells (CHO-hCAIX) (human, UniProt Q16790 38-459); experiment: flow cytometry on CHO-hCAIX cells, anti-human IgG-Fc PE
Experimental: (§1) CHO cells overexpressing human CAIX (CHO-hCAIX cells) were generated by the pCHO1.0 vector (purchased from Invitrogen) transfected with CAIX cDNA. The cell density of the proliferated CHO-CAIX cells were adjusted to 2×10⁶ cells/ml, added at 100 μL/well to a 96-well flow cytometry plate, and centrifuged for later use. The purified CAIX antibody was diluted with PBS, and 3-fold dilution was started from 400 nM for a total of 12 points, and 100 μL/well of the above diluted sample was added to the above-mentioned 96-well flow cytometry plate with the cells, incubated at 4° C. for 30 min, and washed with PBS for two times. Goat F(ah′)2 Anti-Human IgG-Fc(PE) (purchased from Abeam, ab98596) diluted 100 times with PBS was added at 100 μL/well, incubated at 4° C. for 30 min, and washed twice with PBS. PBS was added at 100 μl/well to resuspend the cells, the cells were detected on a CytoFlex (Bechman) flow cytometer, and the corresponding MFI was calculated.

[2] = molecular target: T2, human CAIX antigen (purchased from AcroBiosystems) (human, UniProt Q16790 38-414); experiment: BLI (ForteBio), antibody on AHQ sensor, 100 nM antigen, 1:1 model
[3] = molecular target: T2, human CAIX antigen (purchased from …); experiment: BLI (ForteBio), method of Example 3
[4] = molecular target: T3, murine CAIX on CHO cells (CHO-mCAIX) (mouse, UniProt Q8VHB5 32-437); experiment: flow cytometry on CHO-mCAIX cells
T3 construct: whole, on cells; also called mouse CAIX
T3 sequence (Q8VHB5 32-437): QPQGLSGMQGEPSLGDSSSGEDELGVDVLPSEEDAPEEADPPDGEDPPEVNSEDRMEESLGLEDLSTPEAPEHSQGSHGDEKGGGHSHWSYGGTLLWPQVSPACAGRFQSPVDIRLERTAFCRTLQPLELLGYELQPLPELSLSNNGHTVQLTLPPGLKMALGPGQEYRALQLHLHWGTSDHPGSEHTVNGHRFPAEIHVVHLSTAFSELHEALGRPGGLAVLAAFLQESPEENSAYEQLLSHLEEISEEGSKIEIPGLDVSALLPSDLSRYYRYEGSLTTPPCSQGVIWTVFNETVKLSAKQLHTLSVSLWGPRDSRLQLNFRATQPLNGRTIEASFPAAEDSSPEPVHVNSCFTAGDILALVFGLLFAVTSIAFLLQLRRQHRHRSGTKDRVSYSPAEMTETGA
Experimental: as §1
In order to identify the affinity of the antibody to murine CAIX (mCAIX) at cell level, the cell stain was constructed according to the method described in Example 4, the affinity of the purified humanized antibody to CHO-mCAIX at cell level was identified, and the results were shown in FIG. 4 and Table 7.

[5] = molecular target: T1, human CAIX on CHO cells (CHO-hCAIX); experiment: flow cytometry on CHO-hCAIX cells
Experimental: as §1
The purified humanized antibodies were subjected to the detection of binding capacity of the purified humanized nanobody to CHO-hCAIX at cell level according to the method described in Example 4, and the results were shown in FIG. 2 and Table 5.

[6] = molecular target: T4, monkey CAIX on CHO cells (CHO-cyCAIX) (monkey); experiment: flow cytometry on CHO-cyCAIX cells
T4 construct: whole, on cells
Experimental: as §1
In order to identify the affinity of the antibody to monkey CAIX (cyCAIX) at cell level, the cell strain was constructed according to the method described in Example 4, the affinity of the purified humanized antibody to CHO-cyCAIX was identified at cell level, and the results were shown in FIG. 3 and Table 6.

[7] = molecular target: T2, human CAIX antigen (purchased from …); experiment: BLI (ForteBio), method of Example 3; second run, alongside the humanized antibodies (Table 4)

EC50 [1] | Kd [2] | koff [2] | kon [2] | Kd [3] | koff [3] | kon [3] | EC50 [4] | EC50 [5] | EC50 [6] | Kd [7] | Binder
6.07 nM | 2.39 nM | 0.00249 s⁻¹ | 1.04e+06 M⁻¹ s⁻¹ | – | – | – | – | – | – | – | H-YE-37 (Fc fusion, also called CAIX nanobody H-YE-37; not shown: human IgG1 Fc segment) QVQLQESGGGLMHDGDSLRLSCAASGRTFSTYAMGWFRQAPGKEREFVAAISWSGGSTYYADSVKGRFTISRDNAKNTVYLQMNSLKPEDTAVYYCAAEGIYNSGSSYHDANGYDYWGQGTQVTVSS
– | 0.529 nM | 0.000513 s⁻¹ | 969000 M⁻¹ s⁻¹ | – | – | – | – | – | – | – | H-YE-38 (Fc fusion, also called CAIX nanobody H-YE-38; not shown: human IgG1 Fc segment) QVQLQESGGGLMQPGGSLTLSCAVPRFTLDYYAIGWFRQAPGKEREFVAAISWSGGTTQYSDSAKGRFTISRDNSKNTGYLQMNSLKPEDTATYYCAAGRQLEWRTYDYWGQGTQVTVSS
– | – | – | – | 0.384 nM | 0.0001 s⁻¹ | 260000 M⁻¹ s⁻¹ | 59.6 nM | 9.61 nM | 8.39 nM | – | Hu-H-YE-32-D6 (Fc fusion, also called humanized antibody from H-YE-32; not shown: human IgG1 Fc segment) QVQLVESGGGLVQPGGSLRLSCSASGGARNIFSFAAMAWYRQAPGKGLELVAVITSAGGTQYSSSVKGRFTISRDNSKKTLYLQMNSLRAEDTAVYYCNADYYQDYWGQGTQVTVSS
– | – | – | – | 8.2 nM | 0.00177 s⁻¹ | 216000 M⁻¹ s⁻¹ | 552 nM | 2.33 nM | 22.7 nM | – | Hu-H-YE-32-D5 (Fc fusion, T0013 prints the label as Hu-H-YB-32-D5; also called Hu-H-YB-32-D5; humanized antibody from H-YE-32; not shown: human IgG1 Fc segment) QVQLVESGGGLVQPGGSLRLSCSASGGARNIFSFAAMHWYRQAPGKGLELVAVITSAGGTYYADSVKGRFTISRDNSKKTLYLQMNSLRAEDTAVYYCNADYYQDYWGQGTQVTVSS
4.74 nM | 2.53 nM | 0.00125 s⁻¹ | 495000 M⁻¹ s⁻¹ | – | – | – | – | – | – | – | H-YE-40 (Fc fusion, also called CAIX nanobody H-YE-40; not shown: human IgG1 Fc segment) QVQLQESGGGLVQAGGSLRLSCAASGRTFSSYAMGWFRQAPGKEREFVATISWNGGSTYYADSVKGRFTISRDNAKNTVYLQMNSLKPEDTAVYYCAAEHDLGELAGTGYDYWGQGTQVTVSS
– | – | – | – | 7.84 nM | 0.00142 s⁻¹ | 181000 M⁻¹ s⁻¹ | 58.8 nM | 5.07 nM | 13.5 nM | – | Hu-H-YE-05-D4 (Fc fusion, also called humanized recombinant antibody from H-YE-05; not shown: human IgG1 Fc segment) EVQLLESGGGLVQPGGSRRLSCAASGNSVNIFSFAAVAWYRQAPGKQRELVAVITTTGGTKYSDSVKGRFTISRDSSKNTVYLQMNSLRAEDTAVYYCNADYLQDYWGQGTQVTVSS
– | – | – | – | 6.68 nM | 0.00105 s⁻¹ | 158000 M⁻¹ s⁻¹ | 43.7 nM | 8.71 nM | 25.1 nM | – | Hu-H-YE-23-D2 (Fc fusion, T0013 prints the label as Hu-H-YB-23-D2; also called Hu-H-YB-23-D2; humanized recombinant antibody from H-YE-23; not shown: human IgG1 Fc segment) QVQLVESGGGLVQPGGSLRLSCSASGNSANIFSFASVAWYRQAPGKGLELVSVITSAGGTKYSDSVKGRFTISRDNSKNTLYLQMNSLRAEDTAVYYCNVDYLQDYWGQGTLVTVSS

The next lines start with the binder.

Binder | EC50 [1] | Kd [2] | koff [2] | kon [2] | Kd [3] | koff [3] | kon [3] | EC50 [4] | EC50 [5] | EC50 [6] | Kd [7]
H-YE-33 (Fc fusion, also called CAIX nanobody H-YE-33; not shown: human IgG1 Fc segment) QVQLQESGGGLVQPGGSLRLSCAASGGDFRFYDMGWYRQAPGKQRELVAGITTRGYTNYADVVKGRFTISRDNAKNTVYLEMNSLKPEDTAVYSCSASHFLGGRIDYWGQGTQVTVSS | 2.78 nM | 2.04 nM | 0.00139 s⁻¹ | 682000 M⁻¹ s⁻¹ | – | – | – | – | – | – | –
H-YE-03 (Fc fusion, also called CAIX nanobody H-YE-03; not shown: human IgG1 Fc segment) QVQLQESGGGLVQPGGSLRLSCTASTSSFNFQTMGWYRQAPGKQRELVATITSRAITNYADSVKGRFTISRDNAAKTVSLQMNSLKPEDTAVYYCNAAWIGDYWGQGTQVTVSA | 7.34 nM | 1.14 nM | 0.00141 s⁻¹ | 1.24e+06 M⁻¹ s⁻¹ | – | – | – | – | – | – | –
H-YE-04 (Fc fusion, also called CAIX nanobody H-YE-04; not shown: human IgG1 Fc segment) QVQLQESGGGLVQPGGSLRLSCTASTSSFNFQTLGWYRQAPGNQRELVATITSRAITNYADSVKGRFTISRDNAAKTVSLQMNSLKPEDTAVYYCNAAWIGDYWGQGTQVTVSS | 7.78 nM | 0.282 nM | 0.000259 s⁻¹ | 919000 M⁻¹ s⁻¹ | – | – | – | – | – | – | –
H-YE-24 (Fc fusion, also called CAIX nanobody H-YE-24; not shown: human IgG1 Fc segment) QVQLQESGGGLVQPGGSLRLSCAASGNSVNIFRFAAMAWYRQAPGKQRELVAVITSAGGTKYSDSVKGRFTISRDNAKNTVLLQMNSLKPEDTAVYYCNADYLQDYWGQGTQVTVSS | 3.06 nM | 1.34 nM | 0.000798 s⁻¹ | 594000 M⁻¹ s⁻¹ | – | – | – | – | – | – | –
H-YE-05 (Fc fusion, also called CAIX nanobody H-YE-05; not shown: human IgG1 Fc segment) QVQLQESGGGLVQPGGSRRLSCAASGNSVNIFSFAAVAWYRQAPGKQRELVAVITTTGGTKYSDSVKGRFTISRDSAKNTVLLQMNSLKPEDTAVYYCNADYLQDYWGQGTQVTVSS | 8.79 nM | 0.557 nM | 0.000662 s⁻¹ | 1.19e+06 M⁻¹ s⁻¹ | – | 0.00159 s⁻¹ | 155000 M⁻¹ s⁻¹ | 31.7 nM | 4.55 nM | 7.32 nM | 10.3 nM
H-YE-25 (Fc fusion, also called CAIX nanobody H-YE-25; not shown: human IgG1 Fc segment) QVQLQESGGGLVQPGGSLRLSCAASGNSVNIFRFAAMAWYRQAPGKQRELVAVITTTGGTKYSDSVKGRFTISRDSAKNTVLLQMNSLKPEDTAVYYCNADYLQDYWGQGTQVTVSS | 2.44 nM | 1.21 nM | 0.00106 s⁻¹ | 875000 M⁻¹ s⁻¹ | – | – | – | – | – | – | –
H-YE-23 (Fc fusion, also called CAIX nanobody H-YE-23; WYE-23; not shown: human IgG1 Fc segment) QVQLQESGGGLVQPGGSLRLSCAASGNSANIFSFASVAWYRQAPGKQRELVAVITSAGGTKYSDSVKGRFTISRDNAKNTILLQMNSLKPEDTAVYYCNVDYLQDYWGQGTQVTVSS | 3.55 nM | 0.218 nM | 0.0002 s⁻¹ | 917000 M⁻¹ s⁻¹ | 4.08 nM | 0.000556 s⁻¹ | 136000 M⁻¹ s⁻¹ | 38.1 nM | 3.11 nM | 6.55 nM | –
H-YE-32 (Fc fusion, also called CAIX nanobody H-YE-32; not shown: human IgG1 Fc segment) QVQLQESGGGLVQPGGSLRLSCAASGGARNIFSFAAMAWYRQAPGKQRELVAVITSAGGTQYSSSVKGRFTISRDNAKKTVLLQMNSLKPEDTAVYYCNADYYQDYWGQGTQVTVSS | 6.14 nM | 0.498 nM | 0.000492 s⁻¹ | 988000 M⁻¹ s⁻¹ | 0.369 nM | 0.0001 s⁻¹ | 271000 M⁻¹ s⁻¹ | 34.1 nM | 14.6 nM | 9.42 nM | –
H-YE-26 (Fc fusion, also called CAIX nanobody H-YE-26; not shown: human IgG1 Fc segment) QVQLQESGGGLVQAGGSLRLSCAASGNSVNIFRFATVAWYRQAPGEQRELVAVITSAGGTKYSDSVKGRFTISRDNAKNTVLLQMNSLKPEDTAVYYCNADFLQDYWGQGTQVTVSS | 4.46 nM | 0.109 nM | 0.000109 s⁻¹ | 999000 M⁻¹ s⁻¹ | – | – | – | – | – | – | –
Hu-H-YE-05-D3 (Fc fusion, also called humanized recombinant antibody from H-YE-05; not shown: human IgG1 Fc segment) EVQLLESGGGLVQPGGSLRLSCAASGNSVNIFSFAAMSWYRQAPGKGLELVAVITTTGGTKYSDSVKGRFTISRDNSKNTLYLQMNSLRAEDTAVYYCNADYLQDYWGQGTQVTVSS | – | – | – | – | 10.3 nM | 0.00185 s⁻¹ | 179000 M⁻¹ s⁻¹ | 20.8 nM | 4.46 nM | 14.3 nM | –
